These results are taken from patent US20230265168A1 (BEIJING KAWIN TECHNOLOGY SHARE, published 2023).

Sequences and labels used below:
B1: antibody 083 (antibody, human IgG1, kappa, V domains shown)
VH: EVQLVQSGAEVKKPGASVKVSCKASGYTFTYYYMHWVRQAPGQGLEWMGWINPNSGGTNYAQKFQGRVTITADKSTSTAYMELSSLRSEDTAVYYCARDVWQQGGYYYYMDVWGKGTLVTVSS
VL: not shown
B2: antibody 021-M34 (antibody, human IgG1, kappa, V domains shown)
VH: not shown
VL: DIQLTQSPSSLSASVGDRVTITCRASASISTYLNWYQQKPGKAPKLLIYAASSLQSGVPSRFSGSGSGTDFTLTISSLQPEDFATYYCQQSYSTPLTFGGGTKVDIKR
notes: 021 with X34 (LCDR1) Q to A
B3: antibody 093 (antibody, human IgG1, kappa, V domains shown)
VH: EVQLVQSGAEVKKPGASMKVSCKASGYTFTDYYIHWVRQAPGQGPEWMGWINPNSGGTNYAQKFQGRVTMTRDTSISTAYMELSRLRSDDTAVYYCARDLWNDDVDYYGMDVWGKGTMVTVSS
VL: DIQLTQSPSSLSASVGDRVTITCRASQSISSYLNWYQQKPGKAPKLLIYDASSLQSGVPSRFSGSGSGTEFTLTIRSLQPEDFATYYCQQSYSTPLTFGGGTKLEIKR
B4: antibody 095 (antibody, human IgG1, kappa, V domains shown)
VH: not shown
VL: DIQLTQSPSSLSASVGDRVTITCRASQSISSYLNWYQQKPGKAPKLLISAASSLQSGVPSRFSGSGSGTDFTLTISSLQPGDLATYYCQQSYSTPLTFGGGTKVEIKR
B5: antibody 021-M35 (antibody, human IgG1, kappa, V domains shown)
VH: not shown
VL: DIQLTQSPSSLSASVGDRVTITCRASQAISTYLNWYQQKPGKAPKLLIYAASSLQSGVPSRFSGSGSGTDFTLTISSLQPEDFATYYCQQSYSTPLTFGGGTKVDIKR
notes: 021 with X35 (LCDR1) S to A
B6: antibody 021-M36 (antibody, human IgG1, kappa, V domains shown)
VH: not shown
VL: DIQLTQSPSSLSASVGDRVTITCRASQSASTYLNWYQQKPGKAPKLLIYAASSLQSGVPSRFSGSGSGTDFTLTISSLQPEDFATYYCQQSYSTPLTFGGGTKVDIKR
notes: 021 with X36 (LCDR1) I to A
B7: antibody 021-M40 (antibody, human IgG1, kappa, V domains shown)
VH: not shown
VL: DIQLTQSPSSLSASVGDRVTITCRASQSISTYLNWYQQKPGKAPKLLIYSASSLQSGVPSRFSGSGSGTDFTLTISSLQPEDFATYYCQQSYSTPLTFGGGTKVDIKR
notes: 021 with X40 (LCDR2) A to S
B8: antibody 021-M39 (antibody, human IgG1, kappa, V domains shown)
VH: not shown
VL: DIQLTQSPSSLSASVGDRVTITCRASQSISTALNWYQQKPGKAPKLLIYAASSLQSGVPSRFSGSGSGTDFTLTISSLQPEDFATYYCQQSYSTPLTFGGGTKVDIKR
notes: 021 with X39 (LCDR1) Y to A
B9: antibody 021-M41 (antibody, human IgG1, kappa, V domains shown)
VH: not shown
VL: DIQLTQSPSSLSASVGDRVTITCRASQSISTYLNWYQQKPGKAPKLLIYASSSLQSGVPSRFSGSGSGTDFTLTISSLQPEDFATYYCQQSYSTPLTFGGGTKVDIKR
notes: 021 with X41 (LCDR2) A to S
B10: antibody 021-M42 (antibody, human IgG1, kappa, V domains shown)
VH: not shown
VL: DIQLTQSPSSLSASVGDRVTITCRASQSISTYLNWYQQKPGKAPKLLIYAAASLQSGVPSRFSGSGSGTDFTLTISSLQPEDFATYYCQQSYSTPLTFGGGTKVDIKR
notes: 021 with X42 (LCDR2) S to A
B11: antibody 096 (antibody, human IgG1, kappa, V domains shown)
VH: not shown
VL: ETTLTQSPSTLSASVGDRVTITCRASQSISSYLNWYQQKPGKAPQLLIYTASSLQSGVPSRFSGSGSGTDFTLTISSLQPEDFATYYCQQSYSTPLTFGQGTRLEIKR
B12: antibody 090 (antibody, human IgG1, kappa, V domains shown)
VH: EVQLVQSGAEVKKPGASMKVSCKASGYTFTDYYIHWVRQAPGQGPEWMGWINPNSGGTNYAQKFQGRVTMTRDTSISTAYMELSRLRSDDTAVYYCARDLWNDDVDYYGMDVWGKGTMVTVSS
VL: EIVLTQSPGTLSLSPGERATLSCRASQSVSSYLAWYQQKPGQAPRLLIYGASSRATGIPARFSGSGSGTEFTLTISSLQSEDFATYYCQQSYSTPLTFGPGTKVEIKR
B13: antibody 091 (antibody, human IgG1, kappa, V domains shown)
VH: EVQLVQSGAEVKKPGASMKVSCKASGYTFTDYYIHWVRQAPGQGPEWMGWINPNSGGTNYAQKFQGRVTMTRDTSISTAYMELSRLRSDDTAVYYCARDLWNDDVDYYGMDVWGKGTMVTVSS
VL: EIVLTQSPATLSLSPGERATLSCRASQSVSSYLAWYQQKPGQAPRLLIYDASNRATGIPARFSGSGSGTDFTLTISSLEPEDFATYYCQQSYSTPLTFGGGTKVDIKR

Where only a bound is given, the exact number is not on record here.

The assay deals with T1, HBsAg protein (hepatitis B virus surface antigen) (hepatitis B virus, UniProt P03140 175-400).
T1 construct: Coated on the ELISA plate at 20 ug/ml; also called HBsAg antigen
T1 sequence (P03140 175-400, tags left off): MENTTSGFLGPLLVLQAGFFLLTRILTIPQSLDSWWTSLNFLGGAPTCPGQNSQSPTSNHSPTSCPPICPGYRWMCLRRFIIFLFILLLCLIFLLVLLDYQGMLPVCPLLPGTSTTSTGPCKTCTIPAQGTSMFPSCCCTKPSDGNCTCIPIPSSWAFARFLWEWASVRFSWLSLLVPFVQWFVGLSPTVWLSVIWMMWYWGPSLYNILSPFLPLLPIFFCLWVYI
Put plainly: ELISA on coated HBsAg; grade from OD450 ratio to 021 at 4 ug/ml.
For B1, the “ratio of OD450 at 4 ug/ml to OD450 of antibody 021 at 4 ug/ml” value (“ratio of OD450 at 4 ug/ml” below) was more than 1.1 ratio. B2: the “ratio of OD450 at 4 ug/ml” value was 0.8 to 1.1 ratio. In the case of B3, the “ratio of OD450 at 4 ug/ml” value is more than 1.1 ratio. Under B4 stands more than 1.1 ratio; under B5, 0.8 to 1.1 ratio. With B6 the figure was 0.4 to 0.6 ratio; with B7, more than 1.1 ratio; with B8, 0.4 to 0.6 ratio. Take B9: the “ratio of OD450 at 4 ug/ml” value lay in the range of 0.8 to 1.1 ratio. With B10 the figure was 0.6 to 0.8 ratio; with B11, more than 1.1 ratio; with B12, 0.8 to 1.1 ratio.

As to B13, the “ratio of OD450 at 4 ug/ml” value lay within 0.8 to 1.1 ratio.
